Source: patent US20210253725A1 (BIONTECH, published 2021)

Tests used:
[1] = biological target: T1, CD27 expressed on the cell surface (HT1080_CD27 cells) (human, UniProt P26842 20-260); assay: cell-based or functional assay
T1 sequence (looked up): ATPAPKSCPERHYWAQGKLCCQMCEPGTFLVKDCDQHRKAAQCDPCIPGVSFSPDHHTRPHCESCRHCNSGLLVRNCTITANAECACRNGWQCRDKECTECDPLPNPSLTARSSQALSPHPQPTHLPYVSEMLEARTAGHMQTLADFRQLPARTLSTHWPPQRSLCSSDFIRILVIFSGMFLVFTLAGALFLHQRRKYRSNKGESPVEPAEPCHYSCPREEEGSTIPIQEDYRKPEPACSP

[2] = biological target: T2, CD27 protein (His-tagged, Sino Biological Inc. 10039-H08B1) (human, UniProt P26842 20-192); assay: ELISA on coated His-tagged CD27
T2 construct: bought; coated onto ELISA plates; also called human CD27; recombinant protein; not shown: His tag
T2 sequence (looked up): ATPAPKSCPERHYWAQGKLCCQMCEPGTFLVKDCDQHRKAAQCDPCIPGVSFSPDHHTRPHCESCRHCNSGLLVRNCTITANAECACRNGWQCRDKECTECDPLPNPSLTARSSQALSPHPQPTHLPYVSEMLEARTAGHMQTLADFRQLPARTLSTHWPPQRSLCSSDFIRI

[3] = biological target: T1, CD27 expressed on the cell surface …; assay: cellular binding assay, HT1080_CD27 cells
Further: test concentration or dose not given here.

B1: P018.S.07.A.H02 (antibody, V domains shown)
VH: QEQLVESGGGLVQPEGSLTLTCKASGFDFSSDAMCWVRQAPGKGLEWIACIYVGSVGSSWYASWAKGRFTISKSSSTTVTLQVTSLTAADTATYFCARGENIAYFTFWGPGTLVTVSS
VL: DIMMTQTPASVSAAVGGTVTIKCQASQSINSWLSWYQQKPGQPPKLLIYKASTLASGVPSRFEGSGSGTEFTLTISDLESADAATYYCQGYYYYSSSNFASNAFGGGTEVVVK
notes: V regions on human Ig constant parts; also called AB27_131
IL-8, cross-linked by F(ab')2 fragment [abs. corr.] [1]: 1.22 abs. corr.
IL-8 [abs. corr.] [1]: 0.107 abs. corr.
ELISA [abs. corr.] [2]: 3.47 abs. corr.
Cellular binding assay [RFU] [3]: 283 RFU

B2: P018.S.07.A.C04 (antibody, V domains shown)
VH: QEQLVESGGGLVQPEGSLTLTCTASGFSFSSRFWICWVRQAPGKGLEWIACIYGGSTSATYDASWAKGRFTISKTSSTTVTLQMTSLTAADTATYFCTRLPTYDAYVFNLWGPGTLVTVSS
VL: AIVMTQTPSSKSVPVGATATINCQASESVFSNNYLSWYQQKPGRSPKLLIYEASKLASGVPSRFSGSGSGTQFTLTISDVVSDDAATYYCGGYKSNNVDGYAFGGGTEVVVK
notes: V regions on human Ig constant parts; also called AB27_120
IL-8, cross-linked by F(ab')2 fragment [abs. corr.] [1]: 1.65 abs. corr.
IL-8 [abs. corr.] [1]: 0.302 abs. corr.
ELISA [abs. corr.] [2]: 3.45 abs. corr.
Cellular binding assay [RFU] [3]: 300 RFU

B3: P018.S.10.A.A04 (antibody, V domains shown)
VH: QSVEESGGRLVTPGTPLTLTCTVSGIDLSSNVMTWVRQAPGKGLEWIGYIYASATTYYATWAKGRFTISKTSTTVDLKMTSPTTEDTATYFCARERLASRGDYSDLWGQGTLVTVSS
VL: AYDMTQTPASVEAAVGGTVTIKCQASESIGDLLAWYQQKPGQPPKLLIYDASDLASGVPSRFKGSGSGTEFTLTISGVESADAATYYCQQGYTTTSNVDNIFGGGTEVVVK
notes: V regions on human Ig constant parts; also called AB27_164
IL-8, cross-linked by F(ab')2 fragment [abs. corr.] [1]: 2.16 abs. corr.
IL-8 [abs. corr.] [1]: 1.78 abs. corr.
ELISA [abs. corr.] [2]: 3.13 abs. corr.
Cellular binding assay [RFU] [3]: 175 RFU

B4: P018.S.03.A.F02 (antibody, V domains shown)
VH: QSVEESGGRLVTPGTPLTLTCTVSGFSLSSNAMTWVRQAPGKGLEWIGFINTGGSTYYASWAKGRFTISKTSTTVDLKITSPTTEDTATYFCARDVGDSRGYYWGLWGQGTLVTVSS
VL: AYDMTQTPASVPAAVGGTVTIKCQASEDIYSLLAWYQQKPGQPPKLLIYDASDLASGVPSRFRGSGSGTDYTLTISGVESADAATYYCQQGYTTYTTVDNIFGGGTEVVVK
notes: V regions on human Ig constant parts; also called AB27_53
IL-8, cross-linked by F(ab')2 fragment [abs. corr.] [1]: 1.22 abs. corr.
IL-8 [abs. corr.] [1]: 0.736 abs. corr.
ELISA [abs. corr.] [2]: 3.46 abs. corr.
Cellular binding assay [RFU] [3]: 276 RFU

B5: P018.S.04.A.D04 (antibody, V domains shown)
VH: QSVEESGGRLVTPGTPLTLTCTVSGIDLSSYSMTWVRQAPGKGLEWIGFINTGGRGYYASWAKGRFTISKTSTTVDLKITSPTTEDTATYFCARDAGSSRGYYRDLWGQGTLVTVSS
VL: AYDMTQTPASVSAAVGGTVTIKCQASEDIYSLLAWYQQKPGQPPKLLIYDASDLASGVPSRFSGSGSGTDYTLTISGVESADAATYYCQQGYTTSTTVDNIFGGGTEVVVK
notes: V regions on human Ig constant parts; also called AB27_72
IL-8, cross-linked by F(ab')2 fragment [abs. corr.] [1]: 1.32 abs. corr.
IL-8 [abs. corr.] [1]: 0.486 abs. corr.
ELISA [abs. corr.] [2]: 3.7 abs. corr.
Cellular binding assay [RFU] [3]: 365 RFU

B6: P018.S.06.A.A03 (antibody, V domains shown)
VH: QSVEESGGRLVTPGTPLTLTCTVSGFSLSSNAMTWVRQAPGKGLEWIGFINTGSSTYYASWAKGRFTISKTSTTVDLKITSPTTEDTATYFCARDADDSRGYYWGLWGQGTLVTVSS
VL: AYDMTQTPASVPAAVGGTVTIKCQASEDIYSLLAWYQQKPGQPPKLLIYDASDLASGVPSRFRGSGSGTDYTLTISGVESADAATYYCQQGYTTYTTVDNIFGGGTEVVVK
notes: V regions on human Ig constant parts; also called AB27_96
IL-8, cross-linked by F(ab')2 fragment [abs. corr.] [1]: 1.86 abs. corr.
IL-8 [abs. corr.] [1]: 0.576 abs. corr.
ELISA [abs. corr.] [2]: 3.41 abs. corr.
Cellular binding assay [RFU] [3]: 387 RFU

B7: P018.S.04.A.G04 (antibody, V domains shown)
VH: QSLEESGGRLVTPGTPLTLTCTASGFTISSHHVTWVRQAPGEGLEWIGVIYPSGTTYYASWAKGRFTISRTSTTVDLKMTSLTIEDTATYFCVRDVGYFTLWGQGTLVTVSS
VL: AQVLTQTPSPVSAAVGGTVTISCQSSQSVGGNNWLAWYQQKLGQPPKLLIYYASTLASGVPPRFSGSGSGTQFTLTISEVQSDDSATYYCQGYYSDVTNAFGGGTEVVVK
notes: V regions on human Ig constant parts; also called AB27_78
IL-8, cross-linked by F(ab')2 fragment [abs. corr.] [1]: 1.57 abs. corr.
IL-8 [abs. corr.] [1]: 0.451 abs. corr.
ELISA [abs. corr.] [2]: 3.48 abs. corr.
Cellular binding assay [RFU] [3]: 335 RFU

B8: P018.S.01.A.D05 (antibody, V domains shown)
VH: QSLEESGGRLVTPGTPLTLTCTASGFSLSSYYMSWVRQAPGKGLEYIGGIYTGGSAYYASWARGRFTISRTSTTVDLKMTSLTIEDTATYFCARDAGDRIYTTFNLWGPGTLVTVSS
VL: ALVMTQTPASVSEPVGGTVSLKCQASQSIGSDLSWYQQKSGQPPKLLIYRASKLASGVPSRFKGSGSGTEFTLTISGVQSDDAATYYCLGIDSYSSDDGIAFGGGTEVVVK
notes: V regions on human Ig constant parts; also called AB27_13
IL-8, cross-linked by F(ab')2 fragment [abs. corr.] [1]: 1.1 abs. corr.
IL-8 [abs. corr.] [1]: 0.089 abs. corr.
ELISA [abs. corr.] [2]: 3.14 abs. corr.
Cellular binding assay [RFU] [3]: 273 RFU

B9: P018.S.01.A.G03 (antibody, V domains shown)
VH: QSVEESGGRLVTPGTPLTLTCTVSGFSLSSYSMIWVRQAPGKGLEWIGIVYASGSTNYASWAKGRFTISKTSTTVDLKITSPTTEDTATYFCARGDVLYAFDPWGPGTLVTVSS
VL: AFELTQTPSSVSAAVGGTVTIKCQASENIYSYLAWYQQKPGQPPKRLIYYASNLASGVSSRFKGSGSGTEFTLTISDLESADAATYYCQYTYSTSPGYIFGGGTEVVVK
notes: V regions on human Ig constant parts; also called AB27_22
IL-8, cross-linked by F(ab')2 fragment [abs. corr.] [1]: 1.21 abs. corr.
IL-8 [abs. corr.] [1]: -0.105 abs. corr.
ELISA [abs. corr.] [2]: 3.5 abs. corr.
Cellular binding assay [RFU] [3]: 358 RFU

B10: P018.S.03.A.B05 (antibody, V domains shown)
VH: QEQLEESGGDLVKPEGSLTLTCTASGFDLSSRYWICWVRQAPGKGLEWIGCIKTGFSNTWYASWATGRFTFSKASSTTVTLQMTSLTVADTATYFCARIAAAASASDDFRLWGPGTLVTVSS
VL: AQVLTQTPSSVSAAVGGTVTISCQSSKSVYNKWLSWFQQKPGQPPKLLIYDASDLASGVPSRFKGSGSGTEFTLTISDVQSDDAATYFCLGHYDSSSDRFVFGGGTEVVVK
notes: V regions on human Ig constant parts; also called AB27_43
IL-8, cross-linked by F(ab')2 fragment [abs. corr.] [1]: 1.21 abs. corr.
IL-8 [abs. corr.] [1]: 0.325 abs. corr.
ELISA [abs. corr.] [2]: 3.14 abs. corr.
Cellular binding assay [RFU] [3]: 206 RFU

B11: P018.S.04.A.B05 (antibody, V domains shown)
VH: QSVEESGGRLVTPGTPLTLTCTASGFTLSSFYMSWVRQAPGKGLEWIGFIHGHGNTYYASWAKGRFTISKTSTTVDLKIASPTTEDTATYFCARGGHPNMDLWGQGTLVTISS
VL: DIVMTQTPSSVEAAVGGTVTIKCQASQNINNYLAWYQQKPGQPPKLLIYYASTLASGVSSRFKGSGSGTEFTLTISDLESDDAATYYCQCSYYDASIFGAFGGGTEVVVR
notes: V regions on human Ig constant parts; also called AB27_68
IL-8, cross-linked by F(ab')2 fragment [abs. corr.] [1]: 1.08 abs. corr.
IL-8 [abs. corr.] [1]: 0.308 abs. corr.
ELISA [abs. corr.] [2]: 3.5 abs. corr.
Cellular binding assay [RFU] [3]: 414 RFU

B12: P018.S.06.A.C06 (antibody, V domains shown)
VH: QQQLEESGGGLVKPGGTLTLPCKASGFTISSDYDMCWVRQAPGKGLEWITCILGGSGGSTWYANWAKGRFTISQSSSTTVTLQMTSLTDADTATYFCTRASGFTYFELWGPGTLVTVSS
VL: AQVLTQTPSSVSAAVGGTVTINCQASQSVYNNKNLAWYQQKPGQPPKLLIYYASTLASGVSSRFKGSGSGTQFTLTISDVQSDDAATYYCQGEFSCSSSDCFAFGGGTEVVVK
notes: V regions on human Ig constant parts; also called AB27_102
IL-8, cross-linked by F(ab')2 fragment [abs. corr.] [1]: 1.08 abs. corr.
IL-8 [abs. corr.] [1]: 0.128 abs. corr.
ELISA [abs. corr.] [2]: 3.13 abs. corr.
Cellular binding assay [RFU] [3]: 379 RFU

B13: P018.S.10.A.C05 (antibody, V domains shown)
VH: QSVEETGGRLVTPGTPLTLTCAASGVSLSGYYAMSWVRQAPGKGLEWIGYLDATGSTYYASWVKGRFIISRPSTTVDLQITSPTIEDTATYFCARGSYDGVGYNWGLWGQGTLVTVSS
VL: DIVMTQTPASVSEPVGGTVTIKCQASESIYNGLAWYQQKPGQPPKRLIYGASTLTSGVPSRFKGSGSGTEFTLTISDLESDDAATYYCQSNYGSGSRSNYIFGGGTEVVVK
notes: V regions on human Ig constant parts; also called AB27_173
IL-8, cross-linked by F(ab')2 fragment [abs. corr.] [1]: 2.1 abs. corr.
IL-8 [abs. corr.] [1]: 0.206 abs. corr.
ELISA [abs. corr.] [2]: 3.14 abs. corr.
Cellular binding assay [RFU] [3]: 11 RFU

B14: P018.S.02.A.A06 (antibody, V domains shown)
VH: QSVEESGGRLVKPDESLTLTCTVSGIDLSTYAMGWVRQAPGKGLEYIGMISTGGSAYYASWAQGRFTISRTSTTVDLKMTSLTTEDTATYFCARLRDPYSYRTYFNLWGPGTLVTVSS
VL: ALVMTQTPSSVEAAVGGTVTIKCQASLSISSALAWYQQKPGQRPKLLIYDASNLESGVPSRFKGSGSGAHFTLTVSDLESADAATYYCQGPYDTVNNNSFGGGTEVVVK
notes: V regions on human Ig constant parts; also called AB27_28
IL-8, cross-linked by F(ab')2 fragment [abs. corr.] [1]: 1.48 abs. corr.
IL-8 [abs. corr.] [1]: 0.299 abs. corr.
ELISA [abs. corr.] [2]: 3.13 abs. corr.
Cellular binding assay [RFU] [3]: 293 RFU
